{
  "source": "patent US12098206B2",
  "about": "“PDGF receptor antibody and use thereof” (Seoul National University R&DB Foundation, priority 2018, dated 2024)",
  "molecules": {"B1": {"name": "PRb-CN01: anti-mPDGFR-β chicken scFv clone (VH SEQ ID NO 7, VL SEQ ID NO 8), tested as scFv-Cκ-anti-cotinine scFv bispecific antibody (antibody, V domains shown)", "VH": "AVTLDESGGGLQTPGGALSLVCKASGFTFSDRAMHWVRQAPGKGLEWVGLITNTGGSTNYGAAVKGRATISRDNGQSTVRLQLNNLRAEDTGTYYCTRGVGSWAHGGRIDAWGHGTEVIVSS", "VL": "LTQPSSVSANPGETVKITCSGGSGSYGWFQQKSPGSAPVTVIYSNNQRPSDIPSRFSGSKSGSTNTLTITGVQAEDEAIYYCGTRDSSYVGIFGAGTTLTVL", "modifications": "VH of PRb-CN01; VL of PRb-CN01"}, "B2": {"name": "PRb-CN32: anti-hPDGFR-β scFv clone (VH SEQ ID NO 47, VL SEQ ID NO 48), tested as scFv-Cκ-anti-cotinine scFv bispecific antibody (antibody, V domains shown)", "VH": "AVTLDESGGGLQTPRGTLSLVCKASGFTFSSFNMFWVRQAPGKGLEFVAGISTTGRYTGYGSAVQGRGTISRDNGQSTVRLQLNNLRAEDTGTYYCAKSAGSTYSYWDSDAGLIDAWGHGTEVIVSSTS", "VL": "LTQPSSVSANLGETVKITCSGGSNAGSYYYGWYQQKSPGSAPVTVIYSNNQRPSDIPSRFSGSTSGSTSTLTITGVQVDDEAVYFCGSGDSSSIAAFGAGTTLTVL", "modifications": "VH of PRb-CN32; VL of PRb-CN32"}},
  "key": {"[1]": {"biological_target": "T1, NIH3T3 cells expressing mPDGFR-β (Mus musculus, UniProt P05622)", "T1 construct": "host or cells: NIH3T3", "T1 sequence (P05622 32-1098)": "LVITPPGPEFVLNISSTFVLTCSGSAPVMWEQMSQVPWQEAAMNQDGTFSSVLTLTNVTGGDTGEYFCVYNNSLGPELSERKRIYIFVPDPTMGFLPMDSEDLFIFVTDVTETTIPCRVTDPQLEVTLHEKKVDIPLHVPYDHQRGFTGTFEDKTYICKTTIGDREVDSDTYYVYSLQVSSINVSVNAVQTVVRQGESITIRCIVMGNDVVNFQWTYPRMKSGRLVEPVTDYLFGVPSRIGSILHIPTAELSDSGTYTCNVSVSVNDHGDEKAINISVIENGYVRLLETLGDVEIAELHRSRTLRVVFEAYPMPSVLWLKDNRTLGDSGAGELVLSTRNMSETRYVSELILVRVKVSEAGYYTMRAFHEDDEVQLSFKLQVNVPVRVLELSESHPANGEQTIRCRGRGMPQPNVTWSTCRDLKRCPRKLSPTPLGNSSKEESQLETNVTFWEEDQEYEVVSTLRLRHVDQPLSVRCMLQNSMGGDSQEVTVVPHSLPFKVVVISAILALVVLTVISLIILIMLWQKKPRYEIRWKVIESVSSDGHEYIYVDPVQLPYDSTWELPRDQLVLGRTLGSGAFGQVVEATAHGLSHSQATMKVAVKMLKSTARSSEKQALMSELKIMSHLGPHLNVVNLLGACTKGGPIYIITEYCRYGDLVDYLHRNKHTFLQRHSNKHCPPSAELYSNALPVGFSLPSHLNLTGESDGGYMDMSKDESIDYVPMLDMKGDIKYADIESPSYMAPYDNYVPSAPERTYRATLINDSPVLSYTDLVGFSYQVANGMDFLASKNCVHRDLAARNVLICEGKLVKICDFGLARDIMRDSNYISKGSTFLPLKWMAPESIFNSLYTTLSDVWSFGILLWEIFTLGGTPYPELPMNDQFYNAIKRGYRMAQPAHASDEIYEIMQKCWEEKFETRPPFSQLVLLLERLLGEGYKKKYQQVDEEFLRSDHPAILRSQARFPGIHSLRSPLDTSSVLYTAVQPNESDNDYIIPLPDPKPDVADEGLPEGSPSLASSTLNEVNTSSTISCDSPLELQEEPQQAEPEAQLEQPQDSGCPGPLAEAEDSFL", "experiment": "Flow cytometry binding to NIH3T3 cells expressing mPDGFR-β", "details": "for binding to NIH3T3 cells: 100 nM, FIG. 18", "experimental": "mPDGF-BB was biotinylated using a biotin-xx microscale protein labeling kit (Invitrogen) according to the manufacturer's instructions. NIH3T3 cells were cultured at 4° C. for 1 hour using the bispecific antibody of scFv-Cκ-scFv fusion protein (100 nM) under two different conditions with or without mPDGF-BB-biotin (100 nM). The cells were washed 4 times with flow cytometry buffer and cultured with allophycocyanin (APC)-anti-human Cκ antibody (clone TB28-2; BD Biosciences, San Jose, CA, USA) and streptavidin-phycoerythrin (PE) (12-4317-87; eBioscience, ThermoFisher). After washing, it was classified and analyzed with a FACS Canto II instrument (BD Biosciences, San Jose, CA, USA). 10,000 cells were used for each measurement, and the results were analyzed by FlowJo (Tree Star, Ashland, OR, USA). […] The binding ability of the other three clones was inhibited by mPDGF-BB.\nSpecifically, the bispecific antibody scFv-Cκ-scFv fusion protein (100 nM) in flow cytometry buffer was cultured on NIH3T3 cells expressing mPDGFR-β. The cells were treated with APC-anti human Cκ antibody. The bispecific antibody anti-HER2 x cotinine scFv-Cκ-scFv fusion protein was used as a negative control."}, "NIH3T3 cells": {"tested_on": "NIH3T3 cells", "experiment": "cells", "assay_type": "cell-based, mouse", "experimental": "NIH3T3 cells were added to 50 μL of DMEM supplemented with 10% FBS and 1% penicillin/streptomycin, placed in a 96-well plate (CLS3595, Corning) and incubated overnight in 5% CO2 at 37° C. incubator. In each well containing 50 μL of cells, 50 μL of 50 anti-PDGFR-β x cotinine scFv-Cκ-scFv fusion protein (25.6 pM-2 μM) complexed with cot-duo or cot-duo-cot obtained in Experimental Example 10 was added and incubated for 72 hours in 5% CO2 at 37° C. incubator. To test mPDGF-BB on the toxic effect of the bispecific antibody of scFv-Cκ-scFv and the cotinine-duocarmycin complex, mPDGF-BB (2 nM) was added together with 50 μL of the bispecific antibody scFv-Cκ-scFv and the cotinine-duocarmycin complex. The mixed complexes were added to 50 μL of NIH3T3 cells.\nThe bispecific antibody of anti-HER2 x cotinine scFv-Cκ-scFv was used as a control. After 72 hours of incubation in the cells, 100 μL of Cell Titer-Glo reagents (Promega Corp., Madison, WI, USA) were added to all wells according to the manufacturer's instructions, and luminescence was measured in a luminometer (PerkinElmer, Waltham, MA, USA). The experiment was repeated 3 times. Relative viability was calculated with the following formula: [% viability=(luminescence of experimental well-luminescence of background well)/(luminescence of control-luminescence of background well)×100]. The wells containing only new medium were used as background wells.\nTo evaluate the toxicity of the complex of anti-mPDGFR-B x cotinine scFv-Cκ-scFv bispecific antibodies and cotinine duocarmycin (cot-duo, cot-duo-cot), the complexes were added to NIH3T3 cells in the presence/absence of mPDGF-BB. The ATP of the cells was measured for relative cell viability. The toxicity of the bispecific antibody of scFv-Cκ-scFv fusion antibody was shown by IC50 in Table 6 and FIG. 5.\nIt was carried out in the same manner as in Example 7, except that the bispecific antibody related with the anti-mPDGFR-β antibody and the bispecific antibody related with the anti-hPDGFR-β antibody prepared in Example 10 were used. FIG. 20a to FIG. 20b are graphs showing the difference in cytotoxic activity of PRb-CN01 and PRb-CN32 bispecific antibodies and cotinine-duocarmycin complexes in the cells expressing PDGFR-β. In FIG. 20b, an experiment was repeated in the presence of mPDGF-BB."}, "mPDGFR-β": {"biological_target": "T2, mPDGFR-β (Mus musculus, UniProt P05622)", "T2 construct": "mPDGFR-β", "T2 sequence (P05622 32-530)": "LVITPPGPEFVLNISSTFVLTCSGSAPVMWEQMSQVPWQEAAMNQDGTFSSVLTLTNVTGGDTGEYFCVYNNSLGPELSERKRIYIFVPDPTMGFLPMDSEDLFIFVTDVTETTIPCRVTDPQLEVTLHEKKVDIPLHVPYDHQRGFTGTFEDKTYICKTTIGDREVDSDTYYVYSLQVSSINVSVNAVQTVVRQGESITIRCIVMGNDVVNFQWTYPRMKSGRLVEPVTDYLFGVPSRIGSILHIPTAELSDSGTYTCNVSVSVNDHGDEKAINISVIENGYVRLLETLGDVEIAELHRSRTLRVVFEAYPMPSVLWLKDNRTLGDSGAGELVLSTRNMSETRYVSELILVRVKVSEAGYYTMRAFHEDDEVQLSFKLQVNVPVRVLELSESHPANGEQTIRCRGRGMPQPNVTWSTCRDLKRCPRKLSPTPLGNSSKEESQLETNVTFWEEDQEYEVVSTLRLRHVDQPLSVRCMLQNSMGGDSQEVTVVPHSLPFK", "experiment": "Competition enzyme immunoassay against PRb-CN01-rabbit Fc on mPDGFR-β-hFc", "assay_type": "binding", "details": "competitor bispecific scFv-Cκ-scFv 100 nM; FIG. 19a", "experimental": "It was carried out in substantially the same manner as the enzyme immunoassay method for antibody binding ability of Example 3, except that mPDGFR-β-hFc chimeric protein was coated with O/N on a microtiter plate at a temperature of 4° C. After incubating the blocking agent in each well, various concentrations of PRb-CN01-rabbit Fc (0.01 nM-1 μM) and PRb-CN01, control anti-HER2 antibody, and PRb-CN32 bispecific scFv-Cκ-scFv (100 nM) diluted in 3% BSA/PBS were reacted in each well at 37° C. for 2 hours. After washing the plate three times with PBST, the HRP-anti rabbit Fc antibody was reacted at 37° C. for 1 hour, and after washing, the reaction was performed using ABTS. Then, the absorbance was measured at 405 nm with a Multiscan Ascent microplate device (Labsystems, Helsinki, Finland) (FIG. 19A). FIG. 19a is the result of confirming the competition for the PRb-CN01 surrogate antibody."}},
  "data": [
    {"molecule": "B1", "values": [
      {"measurement": "cell binding in the presence of mPDGF-BB-biotin", "setting": "[1]; 100 nM antibody, mPDGF-BB-biotin 100 nM, FIG. 4b", "result": "bound to PDGFR-β present on the cell surface"},
      {"measurement": "binding to NIH3T3 cells", "setting": "[1]", "result": "bound to NIH3T3 cells"},
      {"measurement": "cytotoxicity of complex with cotinine-duocarmycin, PRb-CN01 versus PRb-CN32", "setting": "NIH3T3 cells", "result": "equivalent cytotoxicity regardless of the presence/absence of mPDGF-BB"},
      {"measurement": "toxicity with the addition of mPDGF-BB", "setting": "NIH3T3 cells; complex with cot-duo or cot-duo-cot, NIH3T3, FIG. 5", "result": "also high with the addition of mPDGF-BB"},
      {"measurement": "toxicity compared to control anti-HER2 x cotinine scFv-Cκ-scFv", "setting": "NIH3T3 cells; complex with cotinine-duocarmycin, NIH3T3, with or without mPDGF-BB, FIG. 5", "result": "highest toxicity"},
      {"measurement": "toxicity compared to free duocarmycin", "setting": "NIH3T3 cells; cotinine-duocarmycin complexed with antibody, in the presence of mPDGF-BB, p<0.01", "result": "significantly more toxic than free duocarmycin"},
      {"measurement": "inhibition of binding of PRb-CN01-rabbit Fc to mPDGFR-β-hFc chimeric protein", "setting": "mPDGFR-β", "result": "inhibited"}
    ]},
    {"molecule": "B2", "values": [
      {"measurement": "binding to NIH3T3 cells", "setting": "[1]", "result": "bound to NIH3T3 cells"},
      {"measurement": "cytotoxicity of complex with cotinine-duocarmycin, PRb-CN01 versus PRb-CN32", "setting": "NIH3T3 cells", "result": "equivalent cytotoxicity regardless of the presence/absence of mPDGF-BB"},
      {"measurement": "inhibition of binding of PRb-CN01-rabbit Fc to mPDGFR-β-hFc chimeric protein", "setting": "mPDGFR-β", "result": "inhibited"}
    ]}
  ]
}
